In the supplement of paper PMC6757056:
± gives the standard deviation of the averaged measurements.

B1: library; a variant is named by its letters at N, in order (parent)
chain: GCUGUCACCGGUGUAUUACCCUAGUGGUCGACCGGUCUGAUGAGUCUNNNNNNAGACGAAACAGC

Assays:
[1] = variants of: B1; test: FACS-Seq fitted mean relative fluorescence mCherry/BFP without ligand (log10 relative fluorescence); ligand: hypoxanthine (xanthine aptamer); higher = higher reporter protein expression; details: HEK293T, ligand present: no
Procedure, shortened: (§1)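 Fluorescence figures are normalized fitted normal means of sequenced bin counts. Enriched, lentivirally transduced HEK293T libraries with a ribozyme-switch mCherry reporter and EF1α-BFP were held 48 h with or without ligand, then sorted into 6 mCherry/BFP bins. PCR-amplified, barcoded genomic DNA from each bin was sequenced on MiSeq. Means of log10(mCherry/BFP) were scaled to five spiked-in control ribozymes.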

[2] = variants of: B1; test: normalized RNA/DNA level with ligand (relative to sTRSVctl = 100) (log10 (% of sTRSVctl)); ligand: hypoxanthine (xanthine aptamer); higher = less ribozyme self-cleavage, higher mRNA level; details: ligand concentration (+) RNA-Seq: 5 mM, HEK293T, reporter: mCherry (pCS4076), ligand present: yes
Procedure, shortened: (§2)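 For each 6-well well, 4 µg of library plasmid encoding mCherry-linked ribozyme switches, or eGFP-linked ones in some ligand experiments, was transfected into HEK293T. Any ligand was added 1 h before transfection, and RNA was extracted with EDTA 72 h after it, then reverse-transcribed, amplified, barcoded and sequenced. RNA level was obtained by dividing RNA reads by DNA reads, normalizing to a spiked-in non-cleaving sequence or to the top sequences, then scaling and log-transforming. The top set was 25 sequences, scaling was ×100 with log10, and ≥100 DNA reads were required.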

[3] = variants of: B1; test: normalized RNA/DNA level without ligand (relative to sTRSVctl = 100) (log10 (% of sTRSVctl)); ligand: hypoxanthine (xanthine aptamer); higher = less ribozyme self-cleavage, higher mRNA level; details: HEK293T, reporter: mCherry (pCS4076), ligand present: no
Procedure, shortened: as §2

[4] = variants of: B1; test: FACS-Seq fitted mean relative fluorescence mCherry/BFP with ligand (log10 relative fluorescence); ligand: hypoxanthine (xanthine aptamer); ligand concentration (+) FACS-Seq: 5 mM; higher = higher reporter protein expression; details: HEK293T, ligand present: yes
Procedure, shortened: as §1

Row | Variant | FACS-Seq fitted mean (log10) [1] | normalized RNA/DNA level with ligand (log10) [2] | normalized RNA/DNA level without ligand (log10) [3] | FACS-Seq fitted mean (log10) [4]
1 | GCUGUCACCGGUGUAUUACCCUAGUGGUCGACCGGUCUGAUGAGUCUGUUAACAGACGAAACAGC [GUUAAC] | 0.164 ± 0.008 | 1.95 ± 0.021 | 1.8064 ± 0.0016 | -0.269 ± 0.1
2 | GCUGUCACCGGUGUAUUACCCUAGUGGUCGACCGGUCUGAUGAGUCUAUGUGGAGACGAAACAGC [AUGUGG] | -0.193 ± 0.082 | 1.756 ± 0.0083 | 1.27 ± 0.11 | -0.0634 ± 0.1
3 | GCUGUCACCGGUGUAUUACCCUAGUGGUCGACCGGUCUGAUGAGUCUAUGUGAAGACGAAACAGC [AUGUGA] | 0.242 ± 0.018 | 1.849 ± 0.0086 | 1.56 ± 0.1 | 0.68 ± 0.028
4 | GCUGUCACCGGUGUAUUACCCUAGUGGUCGACCGGUCUGAUGAGUCUAUGUGUAGACGAAACAGC [AUGUGU] | -0.337 ± 0.023 | 1.86 ± 0.02 | 1.53 ± 0.059 | 0.155 ± 0.022
5 | GCUGUCACCGGUGUAUUACCCUAGUGGUCGACCGGUCUGAUGAGUCUUUGUGGAGACGAAACAGC [UUGUGG] | 0.447 ± 0.013 | 2.01 ± 0.025 | 1.89 ± 0.0069 | 0.511 ± 0.067
6 | GCUGUCACCGGUGUAUUACCCUAGUGGUCGACCGGUCUGAUGAGUCUGUGUUGAGACGAAACAGC [GUGUUG] | 0.222 ± 0.012 | 1.83 ± 0.048 | 1.34 ± 0.11 | 0.559 ± 0.033
7 | GCUGUCACCGGUGUAUUACCCUAGUGGUCGACCGGUCUGAUGAGUCUAUUAAGAGACGAAACAGC [AUUAAG] | 0.351 ± 0.019 | 1.86 ± 0.028 | 1.48 ± 0.056 | 0.65 ± 0.069
8 | GCUGUCACCGGUGUAUUACCCUAGUGGUCGACCGGUCUGAUGAGUCUAUUAAUAGACGAAACAGC [AUUAAU] | 0.51 ± 0.075 | 1.89 ± 0.023 | 1.774 ± 0.0011 | 0.566 ± 0.024
9 | GCUGUCACCGGUGUAUUACCCUAGUGGUCGACCGGUCUGAUGAGUCUAUUAAAAGACGAAACAGC [AUUAAA] | 0.84 ± 0.0057 | 1.89 ± 0.045 | 1.78 ± 0.021 | 0.732 ± 0.092
10 | GCUGUCACCGGUGUAUUACCCUAGUGGUCGACCGGUCUGAUGAGUCUAUGUCUAGACGAAACAGC [AUGUCU] | 0.305 ± 0.037 | 1.957 ± 0.019 | 1.85 ± 0.046 | 0.0818 ± 0.041
11 | GCUGUCACCGGUGUAUUACCCUAGUGGUCGACCGGUCUGAUGAGUCUCUUAACAGACGAAACAGC [CUUAAC] | 0.554 ± 0.03 | 1.89 ± 0.059 | 1.82 ± 0.036 | 0.637 ± 0.05
12 | GCUGUCACCGGUGUAUUACCCUAGUGGUCGACCGGUCUGAUGAGUCUCUGUGGAGACGAAACAGC [CUGUGG] | 0.575 ± 0.018 | 1.91 ± 0.027 | 1.45 ± 0.089 | 0.842 ± 0.073
13 | GCUGUCACCGGUGUAUUACCCUAGUGGUCGACCGGUCUGAUGAGUCUUUUAACAGACGAAACAGC [UUUAAC] | 0.697 ± 0.045 | 2 ± 0.04 | 1.86 ± 0.021 | 0.716 ± 0.07
14 | GCUGUCACCGGUGUAUUACCCUAGUGGUCGACCGGUCUGAUGAGUCUGUGUCGAGACGAAACAGC [GUGUCG] | 0.585 ± 0.017 | 1.86 ± 0.034 | 1.604 ± 0.0026 | 0.628 ± 0.037
15 | GCUGUCACCGGUGUAUUACCCUAGUGGUCGACCGGUCUGAUGAGUCUCUGUUAAGACGAAACAGC [CUGUUA] | 0.263 ± 0.085 | 1.95 ± 0.057 | 1.66 ± 0.027 | 0.493 ± 0.053
16 | GCUGUCACCGGUGUAUUACCCUAGUGGUCGACCGGUCUGAUGAGUCUAUGUUGAGACGAAACAGC [AUGUUG] | 0.146 ± 0.039 | 1.85 ± 0.024 | 1.44 ± 0.075 | 0.386 ± 0.071
17 | GCUGUCACCGGUGUAUUACCCUAGUGGUCGACCGGUCUGAUGAGUCUAUGUUUAGACGAAACAGC [AUGUUU] | 0.564 ± 0.028 | 1.95 ± 0.055 | 1.85 ± 0.03 | 0.43 ± 0.049
18 | GCUGUCACCGGUGUAUUACCCUAGUGGUCGACCGGUCUGAUGAGUCUGUGUGAAGACGAAACAGC [GUGUGA] | 0.33 ± 0.037 | 1.905 ± 0.0085 | 1.58 ± 0.026 | 0.67 ± 0.024
19 | GCUGUCACCGGUGUAUUACCCUAGUGGUCGACCGGUCUGAUGAGUCUGUGUGCAGACGAAACAGC [GUGUGC] | 0.169 ± 0.0029 | 1.801 ± 0.013 | 1.36 ± 0.089 | 0.597 ± 0.033
20 | GCUGUCACCGGUGUAUUACCCUAGUGGUCGACCGGUCUGAUGAGUCUGUGUGUAGACGAAACAGC [GUGUGU] | 0.3521 ± 0.0033 | 1.894 ± 0.0042 | 1.64 ± 0.023 | 0.466 ± 0.13
21 | GCUGUCACCGGUGUAUUACCCUAGUGGUCGACCGGUCUGAUGAGUCUGUGUGGAGACGAAACAGC [GUGUGG] | 0.0226 ± 0.011 | 1.807 ± 0.0054 | 1.27 ± 0.025 | 0.5793 ± 0.0024
